Numbering of substitutions follows the chain as printed.
T1: plasma-derived human activated protein C (APC) (UniProt P04070 43-461)
T1 chain: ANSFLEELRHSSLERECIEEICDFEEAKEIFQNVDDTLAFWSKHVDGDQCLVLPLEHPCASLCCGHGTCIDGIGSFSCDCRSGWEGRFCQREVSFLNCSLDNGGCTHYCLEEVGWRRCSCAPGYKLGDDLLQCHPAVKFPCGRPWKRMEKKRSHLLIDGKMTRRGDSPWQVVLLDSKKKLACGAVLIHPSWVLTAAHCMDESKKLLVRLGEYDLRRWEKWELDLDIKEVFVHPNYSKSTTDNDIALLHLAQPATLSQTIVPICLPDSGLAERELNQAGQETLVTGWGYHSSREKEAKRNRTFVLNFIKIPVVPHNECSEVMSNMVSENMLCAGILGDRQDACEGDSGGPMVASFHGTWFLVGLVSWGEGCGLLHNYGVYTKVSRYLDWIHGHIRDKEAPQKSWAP

B1: TPP-24745 (antibody, V domains shown)
VH: EVQLVESGGGLVQPGGSLRLSCAASGFTFSNYYINWVRQAPGKGLEWVSYISSSSSTIYYADSVKGRFTISRDDSKNSLYLQMNSLKTEDTAVYYCAREGDYFDYWGQGTLVTVSS
B2: TPP-24737 (antibody, V domains shown)
VH: B1 VH with I34M
B3: TPP-24777 (antibody, V domains shown)
VH: B1 VH with N31S, I34L
B4: TPP-24740 (antibody, V domains shown)
VH: EVQLVESGGGLVQPGGSLRLSCAASGFTFSNYYMSWVRQAPGKGLEWVGDIRLKSNNYEKHYAESVKGRFTISRDDSKNSLYLQMNSLKTEDTAVYYCAREGDYFDYWGQGTLVTVSS
B5: TPP-24744 (antibody, V domains shown)
VH: B4 VH with M34I, S35N
B6: TPP-24727 (antibody, V domains shown)
VH: B4 VH with M34L, S35N
VL: DIVLTQSPASLAVSPGQRATITCKASESVDSFGATFMHWYQQKPGQPPKLLIYLASNLESGVPARFSGSGSGTDFTLTINPVEADDTANYYCQQNNEDPYTFGQGTKLEIKR
B7: TPP-24739 (antibody, V domains shown)
VH: EVQLVESGGGLVQPGGSLRLSCAASGFTFSNYYMNWVRQAPGQGLEWMGRIIPILGIANYAQKFQGRFTISRDDSKNSLYLQMNSLKTEDTAVYYCAREGDYFDYWGQGTLVTVSS
B8: TPP-24743 (antibody, V domains shown)
VH: B7 VH with N35S
B9: TPP-24738 (antibody, V domains shown)
VH: EVQLVESGGGLVQPGGSLRLSCAASGFTFSNYYMNWVRQAPGKGLEWVGRIKSKTDGGTTDYAAPVKGRFTISRDDSKNSLYLQMNSLKTEDTAVYYCAREGDYFDYWGQGTLVTVSS
B10: TPP-24766 (antibody, V domains shown)
VH: B9 VH with Y32A, N35S
B11: TPP-24750 (antibody, V domains shown)
VH: B9 VH with M34I, N35S
B12: TPP-26870 (antibody, V domains shown)
VH: B1 VH with I34M
VL: EIVLTQSPGTLSLSPGERATLSCRASQSVSSFGATFMHWYQQKPGQPPKLLIYLASNRASGVPDRFSGSGSGTDFTLKISRVEAEDVGVYYCQQNNEDPYTFGQGTKLEIKR
B13: hAPC (enzyme)
chain: T1 chain
B14: TPP-26934 (antibody, V domains shown)
VH: B4 VH with M34I, S35N
VL: B12 VL with K78T, S80N, R81P, E85D, V87T, G88A, V89N

Biological target: T1, plasma-derived human activated protein …
Experiment: SPR

Kd [nM]	Binder
76.4	B1
12.5	B2
31.4	B3
60.5	B4
22.8	B5
44.8	B6
0.737	B7
0.174	B8
1.81	B9
29700	B10
13200	B11

Biological target: T1, plasma-derived human activated protein …
Experiment: SPR; head prints nM; kd/ka gives M

Kd [nM]	Binder
40	B12

The binders below were run against TPP-29862 (assay: SPR; head prints nM; kd/ka gives M).

Kd [nM]	Binder
11	B13

Biological target: T1, plasma-derived human activated protein …
Experiment: SPR
Remark: another data set of the same source

Kd [nM]	Binder
44.8	B6

Biological target: T1, plasma-derived human activated protein …
Experiment: SPR
Remark: another data set of the same source

Kd [nM]	Binder
12.9	B12
18.7	B6
19.8	B14

From patent US20250188189A1 (published 2025)
